Laboratory results as given in patent publication US6034212.

Experiments:
[1] = target: GST-… fusion protein (mouse); experiment: Western ligand blot, reference GST-WBP-1 (1-74)
[2] = target: GST-…; experiment: blot of mutant ligand proteins probed with 32P-labelled GST-WW-YAP

What does the source list for “GST-WW-YAP fusion protein (WW domain of human YAP in pGEX-2TK)”?
signal relative to the N-terminal construct [1]: 80%; fold reduction of binding against wild-type PY [2]: 2 fold
